Assay results as given in patent US20200172582A1 (UNIVERSITY OF FLORIDA RESEARCH FOUNDATION, published 2020).

Assays:
[1] = target: T1, SIGNR1-hFc (extracellular region of murine SIGNR1 fused to the Fc part of human IgG1) (mouse; human, UniProt Q8CJ91 74-325; P01857 104-330 = IgG part, limits assumed); assay: flow cytometry of SlpA-coated beads with hFc fusion proteins
T1 construct: extracellular domain;domain: Fc part of human IgG1; Expressed in CHO-S cells
Protocol: (§1) FIGS. 5A-5D. L. acidophilus NCK2187 and its SlpA bind to murine SIGNR3 to induce regulatory signals. A. B6 mice were orally gavaged with 10⁹ CFU NCK56 or NCK2187 and the colonic gene expression of C-type lectin receptors were measured by RT-PCR. Each box represents an individual mouse; n=4. Data represent three individual experiments and are shown as mean±SEM. B. Binding of SlpA to various hFc fusion proteins were analyzed by flow cytometry. Gray tinted line=SlpA-coated beads only; orange=SlpA-coated beads+secondary antibody; green=SlpA-coated beads+control fusion protein; blue=SlpA-coated beads+SIGNR1-hFc; red=SlpA-coated beads+SIGNR3-hFc. Binding assays results were confirmed five independent times. C. […] production by colonic DCs of naïve WT B6 GF or Signr3^{-/-} mice treated with NCK56 (blue) or NCK2187 (green) on days 0, 3, 6, and 9, or left untreated (black), as determined by flow cytometry. D. Frequency of colonic FoxP3⁺ Tregs in KO mice treated with NCK56 or NCK2187 was measured by flow cytometry. n=5 mice/group. Data represent four individual experiments and are shown as mean±SEM. *P<0.05. […]
(§2) C-type lectin receptors, SIGNR1 and SIGNR3, were fused to the Fc part of human IgG1 (SIGNR1-hFc and SIGNR3-hFc) as previously described (Eriksson et al., 2013). […] Binding of SlpA-coated beads (Dynabeads MyOne Carboxylic Acid, Life Technologies) to fusion proteins was analyzed by flow cytometry.

[2] = target: T2, hFc (human, UniProt P01857-1 104-330 = IgG part, limits assumed); assay: as above
T2 construct: domain: Fc; Fc-only control in the SlpA bead assay; also called human Fc
Protocol: as §1, §2

T1 sequence (Q8CJ91 other isoform, or with tags, fused parts or gaps limits assumed): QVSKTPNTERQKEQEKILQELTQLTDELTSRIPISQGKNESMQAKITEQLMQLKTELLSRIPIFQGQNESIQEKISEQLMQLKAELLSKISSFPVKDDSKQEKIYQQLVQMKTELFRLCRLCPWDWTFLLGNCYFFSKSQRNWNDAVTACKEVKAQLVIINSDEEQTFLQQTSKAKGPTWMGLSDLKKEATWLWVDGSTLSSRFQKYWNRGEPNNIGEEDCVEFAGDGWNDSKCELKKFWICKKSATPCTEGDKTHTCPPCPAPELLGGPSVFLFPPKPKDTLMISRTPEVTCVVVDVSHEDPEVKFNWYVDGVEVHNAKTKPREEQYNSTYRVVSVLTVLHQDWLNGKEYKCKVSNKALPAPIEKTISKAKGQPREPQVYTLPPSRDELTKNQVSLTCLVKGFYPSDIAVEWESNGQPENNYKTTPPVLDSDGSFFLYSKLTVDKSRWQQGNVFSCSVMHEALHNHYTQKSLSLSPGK

B1: Lactobacillus acidophilus surface layer protein A (SlpA), purified from strain NCK2187 (other)
chain: AVSTVSAATTINASSSAINTNTNAKYDVDVTPSVSAVAANTANNTPAIAGNLTGTISASYNGKTYTANLKADTENATITAAGSTTAVKPAELAAGVAYTVTVNDVSFNFGSENAGKTVTLGSANSNVKFTGTNSDNQTETNVSTLKVKLDQNGVASLTNVSIANVYAINTTDNSNVNFYDVTSGATVTNGAVSVNADNQGQVNVANVVAAINSKYFAAQYADKKLNTRTANTEDAIKAALKDQKIDVNSVGYFKAPHTFTVNVKATSNTNGKSATLPVVVTVPNVAEPTVASVSKRIMHNAYYYDKDAKRVGTDSVKRYNSVSVLPNTTTINGKTYYQVVENGKAVDKYINAANIDGTKRTLKHNAYVYASSKKRANKVVLKKGEVVTTYGASYTFKNGQKYYKIGDNTDKTYVKVANFR
notes: Native protein extracted from the surface of L. acidophilus NCK2187 with 5 M LiCl or 5 M NaCl (46 kDa band); In the assays it was coated on carboxylated beads or ELISA plates, blotted, or pulsed onto RAW 264.7 cells; also called L. acidophilus-SlpA; purified SlpA
binding result [1]: no binding | binding result [2]: no binding
